The values that follow come from patent publication US20060029995A1, “Novel class of metacaspases” (Vlaams Interuniversitair Instituut Voor Biotechnologie VZW, priority 2003, published 2006).

For one series, the target named is T1, metacaspase 3 (Arabidopsis thaliana, UniProt Q9FMG1).
T1 construct: made in house; host or cells: bacterial production, pDEST17 (E. coli by the general method)
T1 sequence (Q9FMG1 1-362 R151K/L157V/V158I/Q177E): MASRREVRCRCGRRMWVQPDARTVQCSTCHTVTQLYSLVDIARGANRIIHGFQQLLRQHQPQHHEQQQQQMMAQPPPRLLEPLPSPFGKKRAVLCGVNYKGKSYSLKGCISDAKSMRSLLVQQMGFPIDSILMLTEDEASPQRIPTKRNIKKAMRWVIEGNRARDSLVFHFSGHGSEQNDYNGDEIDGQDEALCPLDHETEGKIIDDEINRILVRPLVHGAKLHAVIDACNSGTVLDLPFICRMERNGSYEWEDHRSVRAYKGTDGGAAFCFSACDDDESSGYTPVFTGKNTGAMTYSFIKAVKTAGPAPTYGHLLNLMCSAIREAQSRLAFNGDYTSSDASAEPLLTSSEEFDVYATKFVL
Kind of series: Cleavage of fluorescent artificial substrates by purified metacaspase 3. It counts as biochemical. The settings on record: assay buffers of pHs ranging from 4.5 to 9.0 (MES 50 mM). The text has this: (§1) For generation of the prodomain deletion mutant of Arabidopsis thaliana metacaspase 3 (MC3ΔN), residues 1 to 91 were replaced by a methionine residue by PCR, using 5′-[…]-3′ (SEQ ID NO:43) as the forward primer and 5′-[…]-3′ (SEQ ID NO:17) as the reverse primer. 5′ extensions used for Gateway™ (Invitrogen) cloning were 5′-[…]-3′ (SEQ ID NO:44) for forward primers and 5′-[…]-3′ (SEQ ID NO:45) for reverse primers. For bacterial production, the cDNA's were cloned into the bacterial expression vector pDEST17™ (Invitrogen), resulting in the amino-terminal translational addition of the following HIS6 tag-containing sequence: […] (SEQ ID NO:37).
(§2) Activity of purified metacaspase 3 was tested with different fluorescent substrates in assay buffers of pHs ranging from 4.5 to 9.0 (MES 50 mM). The substrates tested were: Ac-DEVD-AMC, Z-VAD-AMC, Boc-GRR-AMC, Boc-GKR-AMC, Z-FR-AMC and H-AFK-AMC. Only Z-FR-AMC was cut by metacaspase 3.

The target in the next series is T2, Atmc9 (Arabidopsis thaliana, UniProt Q9FYE1).
T2 construct: it indeed consists of amino acids 184 to 325 (calculated mass 15427 Da); made in house; host or cells: E. coli BL21(DE3), pDEST17, Ni-NTA purified
T2 sequence (Q9FYE1 1-183 limits assumed): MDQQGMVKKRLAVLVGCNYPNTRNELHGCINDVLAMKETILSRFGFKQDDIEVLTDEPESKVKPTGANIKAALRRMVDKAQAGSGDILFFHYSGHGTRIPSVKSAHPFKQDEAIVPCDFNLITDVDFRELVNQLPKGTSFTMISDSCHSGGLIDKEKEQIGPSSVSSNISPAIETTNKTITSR
T2 sequence (Q9FYE1 184-325 limits assumed): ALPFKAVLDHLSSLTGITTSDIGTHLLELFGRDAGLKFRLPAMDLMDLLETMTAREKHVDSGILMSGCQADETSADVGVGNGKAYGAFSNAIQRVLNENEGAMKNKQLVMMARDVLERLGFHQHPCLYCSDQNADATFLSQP
Kind of series: kcat/Km of artificial substrates of Atmc9. In kind it is biochemical. The following applies: summary of Table 1. As for the experimental part: The activity assay buffer used was composed of 50 mM MES pH 5.3, 10% (w/v) sucrose, 0.1% (w/v) 3-[(3-cholamidopropyl)dimethylammonio]-1-propanesulfonate [CHAPS], 10 mM DTT.
Release of free AMC was determined in a time course using a FLUOstar Optima fluorescence plate reader (BMB Lab Technologies, Offenburg, Del.). After total hydrolysis of the substrates, kcatlKm was calculated using the following formula: kcat/Km=kobsIEt, where kobs is determined as the decrease per second of the natural logarithm of substrate left, and Et is the concentration of enzyme active sites in the reaction.

Series [1] is described as follows: Proteolytic activity of Atmc9 against Boc-GKR-AMC at different pH. In kind it is biochemical. The protocol:
Assays were performed in 150 μl with 400 ng of purified Atmc9 and 50 μM substrate in an optimized metacaspase 9 assay buffer (50 mM MES pH 5.3, 10% (w/v) sucrose, 0.1% (w/v) 3-[(3-cholamidopropyl)dimethylammonio]-1-propanesulfonate [CHAPS], 10 mM DTT). Time-dependent release of free amido-4-methylcoumarin (AMC) was measured on a Cytofluor 4000 fluorescence microplate reader (PerSeptive Biosystems, Farmingham, Md., USA).
To further characterize Atmc9 biochemically, the purified protein and its cysteine mutant were tested for their ability to cleave the synthetic fluorogenic oligopeptide substrate t-butyloxycarbonyl-GKR-7-amido-4-methylcoumarin (Boc-GKR-AMC) at different pH.

Series [2] is described as follows: Activity of full length metacaspase 3 and prodomain deletion mutants in function of the pH, Z-FR-AMC as substrate. In kind it is biochemical. Also on record: unit not given here.
Description: as §1, §2
A comparison was made between full length (MC3) and a prodomain deletion mutant of wild-type metacaspase 3 (MC3AN) or the C/A mutant (MC3ANC/A). Activity was significant only after addition of the kosmotrope sodium citrate (Na citr., 1 M), in absence of this agent the proteins were not active.
Table 3: Activit y of full length metacaspase 3, and the prodomain deletion mutant in function of the pH, using Z-FR-AMC as substrate. “No enz” was incubated at pH8, without addition of metacaspase.

The target of series [3] is T3, t-butyloxycarbonyl-Gly-Arg-Arg-7-amido-4-methylcoumarin.
T3 chain: GRR

In series [4] the target is T4, benzyloxycarbonyl-Phe-Arg-AMC.
T4 chain: FR

The target in series [5] is T5, benzyloxycarbonyl-Val-Ala-Asp-aminomethylcoumarin.
T5 chain: VAD

Series [6] deals with T6, acetyl-Asp-Glu-Val-Asp-aminomethylcoumarin.
T6 chain: DEVD

Series [7] deals with T7, t-butyloxycarbonyl-Gly-Lys-Arg-7-amido-4-methylcoumarin.
T7 chain: GKR

Series [8] addresses T8, H-Ala-Phe-Lys-7-amido-4-methylcoumarin.
T8 chain: AFK

The target of series [9] is T9, Z-FK-2,4,6-trimethylbenzoyloxymethyl ketone.
T9 chain: FK

In a further series the target is T10, Z-VAD-fmk.
T10 chain: VAD

Another series deals with T11, Z-DEVD-cmk.
T11 chain: DEVD

The next series concerns the target T12, Z-YVAD-cmk.
T12 chain: YVAD

The target in series [10] is T13, Soybean trypsin inhibitor, P01070.
T13 chain: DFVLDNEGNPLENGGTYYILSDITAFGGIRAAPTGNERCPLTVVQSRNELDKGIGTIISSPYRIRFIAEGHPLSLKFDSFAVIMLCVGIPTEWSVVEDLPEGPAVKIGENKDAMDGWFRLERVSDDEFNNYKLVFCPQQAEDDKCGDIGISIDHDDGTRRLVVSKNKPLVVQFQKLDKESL

*: point of attachment. AMC = Cc1cc(=O)oc2cc(N*)ccc12; Boc = CC(C)(C)OC(=O)*

Turning to “t-butyloxycarbonyl-Gly-Arg-Arg-7-amido-4-methylcoumarin (Boc-Gly-Arg-Arg-{AMC}) [Boc-GRR-AMC]”, the “cleavage by metacaspase 3” value in the series with metacaspase 3 is recorded as “No activity was detected”. Moreover, the “quality as substrate for Atmc9” value with Atmc9 is given as “good substrates”.
In the same order, the values of “t-butyloxycarbonyl-Gly-Lys-Arg-7-amido-4-methylcoumarin (Boc-Gly-Lys-Arg-{AMC}; SMILES Cc1cc(=O)oc2cc(NC(=O)[C@H](CCCNC(=N)N)NC(=O)[C@H](CCCCN)NC(=O)CNC(=O)OC(C)(C)C)ccc12) [Boc-GKR-AMC]” are “No activity was detected” and “somewhat less good substrate”.

B1: Atmc9: purified recombinant HIS-tagged Arabidopsis thaliana metacaspase 9, type II (protein, listed as Arabidopsis thaliana)
chain: HHHHHLESTSLYKKAGSTMDQQGMVKKRLAVLVGCNYPNTRNELHGCINDVLAMKETILSRFGFKQDDIEVLTDEPESKVKPTGANIKAALRRMVDKAQAGSGDILFFHYSGHGTRIPSVKSAHPFKQDEAIVPCDFNLITDVDFRELVNQLPKGTSFTMISDSCHSGGLIDKEKEQIGPSSVSSNISPAIETTNKTITSRALPFKAVLDHLSSLTGITTSDIGTHLLELFGRDAGLKFRLPAMDLMDLLETMTAREKHVDSGILMSGCQADETSADVGVGNGKAYGAFSNAIQRVLNENEGAMKNKQLVMMARDVLERLGFHQHPCLYCSDQNADATFLSQP
modifications: N-terminal His6 tag with linker; Atmc9
notes: purified recombinant HIS-tagged Arabidopsis thaliana metacaspase 9, type II
B1: the “activity at the physiological pH of the cytoplasm” value in [1] (pH 7.0-7.5) is reported as “completely abolished”. Moreover, the “GKR-ase activity” value in series [1] (purified protein, Boc-GKR-AMC at different pH, FIG. 7) was “clearly has GKR-ase activity”.

B2: N-terminally HIS6-tagged Atmc3 (bacterially produced) (protein)
chain: MSYYHHHHHHLESTSLYKKAGSTMASRREVRCRCGRRMWVQPDARTVQCSTCHTVTQLYSLVDIARGANRIIHGFQQLLRQHQPQHHEQQQQQMMAQPPPRLLEPLPSPFGKKRAVLCGVNYKGKSYSLKGCISDAKSMRSLLVQQMGFPIDSILMLTEDEASPQRIPTKRNIRKAMRWLVEGNRARDSLVFHFSGHGSQQNDYNGDEIDGQDEALCPLDHETEGKIIDDEINRILVRPLVHGAKLHAVIDACNSGTVLDLPFICRMERNGSYEWEDHRSVRAYKGTDGGAAFCFSACDDDESSGYTPVFTGKNTGAMTYSFIKAVKTAGPAPTYGHLLNLMCSAIREAQSRLAFNGDYTSSDASAEPLLTSSEEFDVYATKFVL
Turning to B2, the Activity in series [2] (pH 4.5, with sodium citrate (1 M)) was determined as 13.37; in series [2] (pH 5, with sodium citrate (1 M)), 8.05; in [2] (pH 5.5, with sodium citrate (1 M)), 5.48; in series [2] (pH 6, with sodium citrate (1 M)) it was 5.64; in series [2] (pH 6.5, with sodium citrate (1 M)), 29.58; in [2] (pH 7, with sodium citrate (1 M)), 36.63. Further, the Activity in series [2] (pH 7.5, with sodium citrate (1 M)) was 41.61; in series [2] (pH 8, with sodium citrate (1 M)) it was 26.11; in [2] (pH 8.5, with sodium citrate (1 M)), 17.93; in [2] (pH 9, with sodium citrate (1 M)), −2.57. Also, the “cleavage of fluorescent substrate, pH 4.5 to 9.0” value in series [3] is given as “No activity was detected using the other substrates”; in [4], “Only Z-FR-AMC was cut by metacaspase 3”; in series [5], “No activity was detected using the other substrates”; in series [6] it was “No activity was detected using the other substrates”; in series [7] it was “No activity was detected using the other substrates”; in [8], “No activity was detected using the other substrates”.

B3: N-terminally HIS6-tagged Atmc9 (bacterially produced) (protein)
chain: MSYYHHHHHHLESTSLYKKAGSTMDQQGMVKKRLAVLVGCNYPNTRNELHGCINDVLAMKETILSRFGFKQDDIEVLTDEPESKVKPTGANIKAALRRMVDKAQAGSGDILFFHYSGHGTRIPSVKSAHPFKQDEAIVPCDFNLITDVDFRELVNQLPKGTSFTMISDSCHSGGLIDKEKEQIGPSSVSSNISPAIETTNKTITSRALPFKAVLDHLSSLTGITTSDIGTHLLELFGRDAGLKFRLPAMDLMDLLETMTAREKHVDSGILMSGCQADETSADVGVGNGKAYGAFSNAIQRVLNENEGAMKNKQLVMMARDVLERLGFHQHPCLYCSDQNADATFLSQP
For B3, the specificity constant (kcat/Km) in [3] came out at 2900 M⁻¹ s⁻¹; in series [4] it was 2900 M⁻¹ s⁻¹; in series [7], 1900 M⁻¹ s⁻¹; in series [8], 750 M⁻¹ s⁻¹. This molecule also gave an Activity (%) of Atmc9 with Boc-GKR-AMC as substrate, reagent at 1 µM in series [9] of 33%. Further, the Activity (%) of Atmc9 with Boc-GKR-AMC as substrate, reagent at 100 µM with Z-VAD-fmk was 87%; with Z-DEVD-cmk it was 94%; with Z-YVAD-cmk it was 100%. In [10], this molecule had an Activity (%) of Atmc9 with Boc-GKR-AMC as substrate, reagent at 100 µg/ml of 73%.
